In US20120172293A1 (Takeda / Millennium, published 2012):
Non-standard residues stand in square brackets, D forms with d. *: point of attachment. X4 = ((1S)-1-Carboxy-3-methylbutyl)carbamoyl, CC(C)C[C@H](NC(=O)*)C(=O)O; X10 = Tetrahydro‑2H‑pyran‑4‑yl‑carbamoyl, O=C(NC1CCOCC1)*; 4‑guanidinomethylbenzoyl = N=C(N)NCc1ccc(C(=O)*)cc1; Imidazole4carbonyl = O=C(c1cnc[nH]1)*; Arg(Me) = CNC(=N)NCCC[C@H](N)C(=O)O; hArg = N=C(N)NCCCC[C@H](N)C(=O)O; tBuAla = CC(C)(C)C[C@H](N)C(=O)O; 4Pal = N[C@@H](Cc1ccncc1)C(=O)O; Cha = N[C@@H](CC1CCCCC1)C(=O)O; Iva = CC[C@](C)(N)C(=O)O; Aib = CC(C)(N)C(=O)O

Experiments:
[1] = biological target: human Y2 receptor (human) (UniProt P49146); experiment: cell-based or functional assay
[2] = biological target: human Y2 receptor (human) (UniProt P49146); experiment: RBA: displacement of [125I]-PYY from hY2R/CHO membranes

Chain of human Y2 receptor (human) (P49146 whole entry): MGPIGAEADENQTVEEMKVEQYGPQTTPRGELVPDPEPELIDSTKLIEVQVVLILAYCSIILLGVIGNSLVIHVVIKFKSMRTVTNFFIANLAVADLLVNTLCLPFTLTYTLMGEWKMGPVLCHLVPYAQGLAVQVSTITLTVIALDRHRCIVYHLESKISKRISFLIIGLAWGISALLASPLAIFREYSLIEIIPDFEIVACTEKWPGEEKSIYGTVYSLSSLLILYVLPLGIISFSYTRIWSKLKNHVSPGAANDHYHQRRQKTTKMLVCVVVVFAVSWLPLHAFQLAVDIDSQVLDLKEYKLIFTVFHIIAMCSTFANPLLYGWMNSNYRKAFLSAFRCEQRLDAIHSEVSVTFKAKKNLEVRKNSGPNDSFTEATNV

Binder | GBA EC50 Ratio ([35S]GTPγS binding) (EC50 compound/EC50 PYY(3-36)) [1] | IC50 Ratio (IC50 compound/IC50 PYY(3-36)) [2]
X4-E[dP]R[4Pal][Cha][Aib]NK[Aib]TRQR[Cha]-NH2 (SMILES CC(C)C[C@H](NC(=O)N[C@@H](CCC(=O)O)C(=O)N1CCC[C@@H]1C(=O)N[C@@H](CCCNC(=N)N)C(=O)N[C@@H](Cc1ccncc1)C(=O)N[C@@H](CC1CCCCC1)C(=O)NC(C)(C)C(=O)N[C@@H](CC(N)=O)C(=O)N[C@@H](CCCCN)C(=O)NC(C)(C)C(=O)N[C@H](C(=O)N[C@@H](CCCNC(=N)N)C(=O)N[C@@H](CCC(N)=O)C(=O)N[C@@H](CCCNC(=N)N)C(=O)N[C@@H](CC1CCCCC1)C(N)=O)[C@@H](C)O)C(=O)O) | 2.5 | 2.2
Ac-S[dP][hArg]H[Cha][Aib]NK[Aib]TRQR[Cha]-NH2 (SMILES CC(=O)N[C@@H](CO)C(=O)N1CCC[C@@H]1C(=O)N[C@@H](CCCCNC(=N)N)C(=O)N[C@@H](Cc1c[nH]cn1)C(=O)N[C@@H](CC1CCCCC1)C(=O)NC(C)(C)C(=O)N[C@@H](CC(N)=O)C(=O)N[C@@H](CCCCN)C(=O)NC(C)(C)C(=O)N[C@H](C(=O)N[C@@H](CCCNC(=N)N)C(=O)N[C@@H](CCC(N)=O)C(=O)N[C@@H](CCCNC(=N)N)C(=O)N[C@@H](CC1CCCCC1)C(N)=O)[C@@H](C)O) [Ac-[D-Pro24, Har25, Cha27,36, Aib28,31, Lys30]-PYY(23-36)] | 2.7 | 1.2
Ac-S[dP][Arg(Me)]H[Cha][Aib]NK[Aib]TRQR[Cha]-NH2 (SMILES CNC(=N)NCCC[C@H](NC(=O)[C@H]1CCCN1C(=O)[C@H](CO)NC(C)=O)C(=O)N[C@@H](Cc1c[nH]cn1)C(=O)N[C@@H](CC1CCCCC1)C(=O)NC(C)(C)C(=O)N[C@@H](CC(N)=O)C(=O)N[C@@H](CCCCN)C(=O)NC(C)(C)C(=O)N[C@H](C(=O)N[C@@H](CCCNC(=N)N)C(=O)N[C@@H](CCC(N)=O)C(=O)N[C@@H](CCCNC(=N)N)C(=O)N[C@@H](CC1CCCCC1)C(N)=O)[C@@H](C)O) [Ac-[D-Pro24, Arg(Me)25, Cha27,36, Aib28,31, Lys30]-PYY(23-36)] | 1.8 | 1.8
Ac-KS[dP]R[4Pal][Cha][Aib]NK[Aib]TRQR[Cha]-NH2 (SMILES CC(=O)N[C@@H](CCCCN)C(=O)N[C@@H](CO)C(=O)N1CCC[C@@H]1C(=O)N[C@@H](CCCNC(=N)N)C(=O)N[C@@H](Cc1ccncc1)C(=O)N[C@@H](CC1CCCCC1)C(=O)NC(C)(C)C(=O)N[C@@H](CC(N)=O)C(=O)N[C@@H](CCCCN)C(=O)NC(C)(C)C(=O)N[C@H](C(=O)N[C@@H](CCCNC(=N)N)C(=O)N[C@@H](CCC(N)=O)C(=O)N[C@@H](CCCNC(=N)N)C(=O)N[C@@H](CC1CCCCC1)C(N)=O)[C@@H](C)O) [Ac-[Lys22,30, D-Pro24, Pya(4)26, Cha27,36, Aib28,31]-PYY(22-36)] | 1 | 1.1
Ac-LS[dP]R[4Pal][Cha][Aib]NK[Aib]TRQR[Cha]-NH2 (SMILES CC(=O)N[C@@H](CC(C)C)C(=O)N[C@@H](CO)C(=O)N1CCC[C@@H]1C(=O)N[C@@H](CCCNC(=N)N)C(=O)N[C@@H](Cc1ccncc1)C(=O)N[C@@H](CC1CCCCC1)C(=O)NC(C)(C)C(=O)N[C@@H](CC(N)=O)C(=O)N[C@@H](CCCCN)C(=O)NC(C)(C)C(=O)N[C@H](C(=O)N[C@@H](CCCNC(=N)N)C(=O)N[C@@H](CCC(N)=O)C(=O)N[C@@H](CCCNC(=N)N)C(=O)N[C@@H](CC1CCCCC1)C(N)=O)[C@@H](C)O) [Ac-[Leu22, D-Pro24, Pya(4)26, Cha27,36, Aib28,31, Lys30]-PYY(22-36)] | 1 | 1.2
X4-Q[dP]R[4Pal][Cha][Aib]NK[Aib]TRQR[Cha]-NH2 (not fully specified; printed as [(1S)-1-Carboxy-3-methylbutyl]carbamoyl-[Gln23, D-Pro24, Pya(4)26, Cha27,36, Aib28,31, Lys30]-PYY(23-36)) | 1.3 | 0.93
X10-E[dP]R[4Pal][Cha][Aib]NK[Aib]TRQR[Cha]-NH2 (SMILES C[C@@H](O)[C@H](NC(=O)C(C)(C)NC(=O)[C@H](CCCCN)NC(=O)[C@H](CC(N)=O)NC(=O)C(C)(C)NC(=O)[C@H](CC1CCCCC1)NC(=O)[C@H](Cc1ccncc1)NC(=O)[C@H](CCCNC(=N)N)NC(=O)[C@H]1CCCN1C(=O)[C@H](CCC(=O)O)NC(=O)NC1CCOCC1)C(=O)N[C@@H](CCCNC(=N)N)C(=O)N[C@@H](CCC(N)=O)C(=O)N[C@@H](CCCNC(=N)N)C(=O)N[C@@H](CC1CCCCC1)C(N)=O) [Tetrahydro-2H-pyran-4-yl-carbamoyl-[Glu23, D-Pro24, Pya(4)26, Cha27,36, Aib28,31, Lys30]-PYY(23-36)] | 1.6 | 1.1
Ac-S[dP]K(Ac)[4Pal][Cha][Aib]NK[Aib]TRQR[Cha]-NH2 (SMILES CC(=O)NCCCC[C@H](NC(=O)[C@H]1CCCN1C(=O)[C@H](CO)NC(C)=O)C(=O)N[C@@H](Cc1ccncc1)C(=O)N[C@@H](CC1CCCCC1)C(=O)NC(C)(C)C(=O)N[C@@H](CC(N)=O)C(=O)N[C@@H](CCCCN)C(=O)NC(C)(C)C(=O)N[C@H](C(=O)N[C@@H](CCCNC(=N)N)C(=O)N[C@@H](CCC(N)=O)C(=O)N[C@@H](CCCNC(=N)N)C(=O)N[C@@H](CC1CCCCC1)C(N)=O)[C@@H](C)O) [Ac-[D-Pro24, Lys(Ac)25, Pya(4)26, Cha27,36, Aib28,31, Lys30]-PYY(23-36)] | 4.2 | 6.6
Ac-S[dP]R[4Pal][Cha][Aib]NR[Aib]TRQR[Cha]-NH2 (SMILES CC(=O)N[C@@H](CO)C(=O)N1CCC[C@@H]1C(=O)N[C@@H](CCCNC(=N)N)C(=O)N[C@@H](Cc1ccncc1)C(=O)N[C@@H](CC1CCCCC1)C(=O)NC(C)(C)C(=O)N[C@@H](CC(N)=O)C(=O)N[C@@H](CCCNC(=N)N)C(=O)NC(C)(C)C(=O)N[C@H](C(=O)N[C@@H](CCCNC(=N)N)C(=O)N[C@@H](CCC(N)=O)C(=O)N[C@@H](CCCNC(=N)N)C(=O)N[C@@H](CC1CCCCC1)C(N)=O)[C@@H](C)O) [Ac-[D-Pro24, Pya(4)26, Cha27,36, Aib28,31, Arg30]-PYY(23-36)] | 1.8 | 1.1
Imidazole4carbonyl-S[dP][Iva][4Pal][Cha][Aib]NK[Aib]TRQR[Cha]-NH2 (SMILES CC[C@](C)(NC(=O)[C@H]1CCCN1C(=O)[C@H](CO)NC(=O)c1cnc[nH]1)C(=O)N[C@@H](Cc1ccncc1)C(=O)N[C@@H](CC1CCCCC1)C(=O)NC(C)(C)C(=O)N[C@@H](CC(N)=O)C(=O)N[C@@H](CCCCN)C(=O)NC(C)(C)C(=O)N[C@H](C(=O)N[C@@H](CCCNC(=N)N)C(=O)N[C@@H](CCC(N)=O)C(=O)N[C@@H](CCCNC(=N)N)C(=O)N[C@@H](CC1CCCCC1)C(N)=O)[C@@H](C)O) [4-Imidazolecarbonyl-[D-Pro24, Iva25, Pya(4)26, Cha27,36, Aib28,31, Lys30]-PYY(23-36)] | 0.91 | 0.77
Ac-S[dP][Iva][4Pal][Cha][tBuAla]NK[Aib]TRQR[Cha]-NH2 (SMILES CC[C@](C)(NC(=O)[C@H]1CCCN1C(=O)[C@H](CO)NC(C)=O)C(=O)N[C@@H](Cc1ccncc1)C(=O)N[C@@H](CC1CCCCC1)C(=O)N[C@@H](CC(C)(C)C)C(=O)N[C@@H](CC(N)=O)C(=O)N[C@@H](CCCCN)C(=O)NC(C)(C)C(=O)N[C@H](C(=O)N[C@@H](CCCNC(=N)N)C(=O)N[C@@H](CCC(N)=O)C(=O)N[C@@H](CCCNC(=N)N)C(=O)N[C@@H](CC1CCCCC1)C(N)=O)[C@@H](C)O) [Ac-[D-Pro24, Iva25, Pya(4)26, Cha27,36, Leu(Me)28, Lys30, Aib31]-PYY(23-36)] | 1.2 | 0.76
Ac-S[dP][Iva][4Pal][Cha][Iva]NK[Aib]TRQR[Cha]-NH2 (SMILES CC[C@](C)(NC(=O)[C@H](CC1CCCCC1)NC(=O)[C@H](Cc1ccncc1)NC(=O)[C@](C)(CC)NC(=O)[C@H]1CCCN1C(=O)[C@H](CO)NC(C)=O)C(=O)N[C@@H](CC(N)=O)C(=O)N[C@@H](CCCCN)C(=O)NC(C)(C)C(=O)N[C@H](C(=O)N[C@@H](CCCNC(=N)N)C(=O)N[C@@H](CCC(N)=O)C(=O)N[C@@H](CCCNC(=N)N)C(=O)N[C@@H](CC1CCCCC1)C(N)=O)[C@@H](C)O) [Ac-[D-Pro24, Iva25,28, Pya(4)26, Cha27,36, Lys30, Aib31]-PYY(23-36)] | 1 | 1.1
{4‑guanidinomethylbenzoyl}-[Iva]H[Cha][Aib]NK[Aib]TRQR[Cha]-NH2 (SMILES CC[C@](C)(NC(=O)c1ccc(CNC(=N)N)cc1)C(=O)N[C@@H](Cc1c[nH]cn1)C(=O)N[C@@H](CC1CCCCC1)C(=O)NC(C)(C)C(=O)N[C@@H](CC(N)=O)C(=O)N[C@@H](CCCCN)C(=O)NC(C)(C)C(=O)N[C@H](C(=O)N[C@@H](CCCNC(=N)N)C(=O)N[C@@H](CCC(N)=O)C(=O)N[C@@H](CCCNC(=N)N)C(=O)N[C@@H](CC1CCCCC1)C(N)=O)[C@@H](C)O) [4-Guanidinomethylbenzoyl-[Iva25, Cha27,36, Aib28,31, Lys30]-PYY(25-36)] | 2.8 | 6.3
Ac-FS[dP]R[4Pal][Cha][Aib]NK[Aib]TRQR[Cha]-NH2 (SMILES CC(=O)N[C@@H](Cc1ccccc1)C(=O)N[C@@H](CO)C(=O)N1CCC[C@@H]1C(=O)N[C@@H](CCCNC(=N)N)C(=O)N[C@@H](Cc1ccncc1)C(=O)N[C@@H](CC1CCCCC1)C(=O)NC(C)(C)C(=O)N[C@@H](CC(N)=O)C(=O)N[C@@H](CCCCN)C(=O)NC(C)(C)C(=O)N[C@H](C(=O)N[C@@H](CCCNC(=N)N)C(=O)N[C@@H](CCC(N)=O)C(=O)N[C@@H](CCCNC(=N)N)C(=O)N[C@@H](CC1CCCCC1)C(N)=O)[C@@H](C)O) [Ac-[Phe22, D-Pro24, Pya(4)26, Cha27,36, Aib28,31, Lys30]-PYY(22-36)] | 0.89 | 1.2
